# Data: patent US7951356B1, “Tissue factor compositions and kits for coagulation and tumor treatment” (Board of Regents, The University of Texas System, priority 1997, dated 2011)
# Legend:
# [1] = system: L540 human Hodgkin's disease tumors; experiment: Anti-tumor effects (tumor growth), L540 tumors; format: in vivo, mouse; settings: day 14; FIG. 19
# Description: (§1) Accepted animal models were used to determine whether administration of tTF or immunoglobulin-tTF conjugates suppressed the growth of solid tumors in mice. The tumor test systems were: i) L540 human Hodgkin's disease tumors growing in SCID mice; ii) C1300 Muγ (interferon-secreting) neuroblastoma growing in nu/nu mice; iii) H460 human non-small cell lung carcinoma growing in nu/nu mice. To establish solid tumors, 1.5×10^7 tumor cells were injected subcutaneously into the right anterior flank of SCID or BALB/c nu/nu mice (Charles River Labs., Wilmingham, Mass.). When the tumors had grown to various diameters, mice were assigned to different experimental groups, each containing 4 to 9 mice.
# (§2) Mice then received an intravenous injection of 0.5 mg/kg of tTF alone or linked to bispecific antibody. Other mice received equivalent quantities of bispecific antibody alone. The injections were performed over ˜45 seconds into one of the tail veins, followed by 200 μl of saline. The infusions were repeated six days later. Perpendicular tumor diameters were measured at regular intervals and tumor volumes were calculated.
# [2] = system: citrated mouse plasma; experiment: In vitro coagulation assay: tTF constructs localized on A20 lymphoma cells via bispecific antibody B21-2/10H10; format: cell-based; settings: for time in which plasma coagulated: FIG. 20; for coagulation time: FIG. 4B
# Description: This assay was used to verify that tTF, various derivatives and mutants thereof, and immunoglobulin-tTF conjugates acquire coagulation inducing activity once localized at a cell surface. A20 lymphoma cells (I-A^d positive) (2×10^6 cells/ml, 50 μl) were incubated for 1 h at room temperature with a bispecific antibody (50 μg/ml, 25 μl) consisting of a Fab′ arm of the B21-2 antibody directed against I-A^d linked to a Fab′ arm of the 10H10 antibody directed against a non-inhibitory epitope on tTF. The cells were washed at room temperature and varying concentrations of tTF, derivatives or mutants thereof, or immunoglobulin-tTF conjugates were added for 1 hour at room temperature. The bispecific antibody captures the tTF or tTF linked to immunoglobulin, bringing it into close approximation to the cell surface, where coagulation can proceed.
# The cells were washed again at room temperature, resuspended in 75 μl of PBS and warmed to 37° C. […] The time for the first fibrin strands to form was recorded. Clotting time was plotted against tTF concentration and curves compared with standard curves prepared using standard tTF219 preparations.
# [3] = system: C1300 Muγ mouse neuroblastoma; experiment: In vivo tumor thrombosis, C1300 Muγ tumors
# Source text: (§3) Tumor test systems were of four types: i) 3LL mouse lung carcinoma growing subcutaneously in C57BL/6 mice; ii) C1300 mouse neuroblastoma growing subcutaneously in BALB/c nu/nu mice; iii) HT29 human colorectal carcinoma growing subcutaneously in BALB/c nu/nu mice; and iv) C1300 Muγ mouse neuroblastoma growing subcutaneously in BALB/c nu/nu mice. The C1300 Muγ tumor is an interferon-γ secreting transfectant derived from the C1300 tumor (Watanabe et al., 1989).
# Further, the C1300 (Muγ) tumor model of (Burrows, et al., 1992; incorporated herein by reference) was employed and modified as follows: (i) antibody B21-2 was used to target I-A^d; (ii) C1300(Muγ) tumor cells, a subline of C1300(Muγ) 12 tumor cells, that grew continuously in BALB/c nu/nu mice were used; and (iii) tetracycline was […] the mice's drinking water to prevent gut bacteria from inducing I-A^d on the gastrointestinal epithelium.
# (§4) To establish tumors, 10^6 to 1.5×10^7 tumor cells were injected subcutaneously into the right anterior flank of the mice. When tumors had grown to various sizes, mice were randomly assigned to different study groups. Mice then received an intravenous injection of 0.5 mg/kg of tTF alone or linked to IgG, Fab′, or bispecific antibody. Other mice received equivalent quantities IgG, Fab′ or bispecific antibody alone. The injections were performed slowly into one of the tail veins over approximately 45 seconds, usually followed by 200 μl of saline.
# (§5) Twenty-four hours after being injected with tTF or immunoglobulin-tTF conjugates, the mice were anesthetized with metophane and were exsanguinated by perfusion with heparinized saline. Tumors and normal tissues were excised and immediately fixed in 3% (v/v) formalin. Paraffin sections were cut and stained with hematoxylin and eosin. Blood vessels having open lumens containing erythrocytes and blood vessels containing thrombi were counted. Paraffin sections were cut and stained with hematoxylin and eosin or with Martius Scarlet Blue (MSB) trichrome for the detection of fibrin.
# [4] = system: C1300 mouse neuroblastoma; experiment: In vivo tumor thrombosis, C1300 tumors
# Source text: as §3, §4
# (§6) Twenty-four hours after being injected with tTF or immunoglobulin-tTF conjugates, the mice were anesthetized with metophane and were exsanguinated by perfusion with heparinized saline. Tumors and normal tissues were excised and immediately fixed in 3% (v/v) formalin. […] Blood vessels having open lumens containing erythrocytes and blood vessels containing thrombi were counted. […]
# [5] = system: 3LL mouse lung carcinoma; experiment: In vivo tumor thrombosis, 3LL tumors; settings: C57BL/6 mice, large (>800 mm^3) tumors; FIG. 11
# Source text: as §3, §4, §6
# [6] = system: C1300 Muγ (interferon-secreting) neuroblastoma; experiment: Anti-tumor effects (tumor growth), C1300 Muγ tumors; format: in vivo, mouse
# Description: as §1, §2
# [7] = system: H460 human non-small cell lung carcinoma; experiment: Anti-tumor effects (tumor growth), H460 tumors; format: in vivo, mouse; settings: FIG. 13
# Description: as §1, §2
# [8] = system: HT29 human colorectal carcinomas; experiment: Anti-tumor effects (tumor growth), HT29 tumors; format: in vivo, mouse; settings: nu/nu mice, large (1200 mm^3) tumors, intravenous; FIG. 14
# Description: Anti-tumor effects were also observed in mice bearing HT29 human colorectal carcinomas (FIG. 14). Nu/nu mice bearing large (1200 mm^3) tumors on their flanks were injected intravenously with tTF219 or PBS (control), and growth of the tumors was monitored each day for 10 days. The tumors in the tTF219 treated mice discontinued growth for about 7 days after treatment, whereas the tumors in mice treated with PBS continued to grow unchecked.
# [9] = system: HT29 (human colorectal carcinoma) xenograft; experiment: Tumor necrosis in HT29 xenografts 24 hours after treatment (Example XII); format: in vivo, mouse; settings: 24 hours after intravenous injection; tumors 0.5 to 1.0 cm^3; FIG. 23
# Description: For these studies, the inventors chose the HT29 (human colorectal carcinoma) xenograft tumor model. HT29 cells (10^7 cells/mouse) were subcutaneously injected into BALB/c nu/nu mice. Tumor dimensions were monitored and animals were treated when the tumor size was between 0.5 and 1.0 cm^3.
# Animals were sacrificed 24 hours after treatment, perfused with saline and heparin and exsanguinated. Tumors and organs were collected, formalin fixed and histological sections were prepared. The average area of necrosis in sections of the tumors was quantified and calculated as a percentage of the total area of tumor on the section.
# [10] = Toxicity and histology of normal organs in treated tumor-bearing mice; format: in vivo, mouse; settings: 30 minutes or 24 hours after administration
# Source text: as §5
# [11] = system: factor X; settings: appropriate phospholipid membrane environment; Ruf, et al., 1991b; cited from earlier work
molecule,measurement,setting,value
COc1cc([C@@H]2c3cc4c(cc3[C@@H](O[C@@H]3O[C@@H]5CO[C@@H](C)O[C@H]5[C@H](O)[C@H]3O)[C@H]3COC(=O)[C@H]23)OCO4)cc(OC)c1O [etoposide],average tumor volume,[1],1400 mm^3
tTF219: truncated Tissue Factor: residues 1-219 of TF plus an additional glycine at the N-terminus; SEQ ID NO:1 (protein) GSGTTNTVAAYNLTWKSTNFKTILEWEPKPVNQVYTVQISTKSGDWKSKCFYTTDTECDLTDEIVKDVKQTYLARVFSYPAGNVESTGSAGEPLYENSPEFTPYLETNLGQPTIQSFEQVGTKVNVTVEDERTLVRRNNTFLSLRDVFGKDLIYTLYYWKSSSSGKKTAKTNTNEFLIDVDKGENYCFSVQAVIPSRTVNRKSTDSPVECMGQEKGEFRE,time in which plasma coagulated,"[2]; 10^−10 M tTF219, absence of Factor VIIa",60 s
same,time in which plasma coagulated,"[2]; 10^−10 M tTF219, presence of 13.5 nM Factor VIIa",20 s
same,coagulation time,"[2]; 20,000 molecules per cell",140 s
same,coagulation time,"[2]; 300,000 molecules of tTF per cell",40 s
same,effect on coagulation time,"[2]; A20 cells incubated without both specificities needed to bind tTF to the cells, FIG. 4A",no effect on coagulation time
same,increase in coagulation-inducing potency of tTF,[2]; presence of 0.1 nM Factor VIIa,2-5 fold
same,time until fibrin strands were visible after the addition of plasma,"[2]; tTF bound to A20 cells by B21-2/10H10, mouse plasma, FIG. 4A",36 s
same,thrombosis of tumor vessels,"[3]; 24 hours after injection, large tumors, FIG. 9",practically all vessels in all regions of the tumor were thrombosed
same,effect on tumor vessels,[3]; small (<500 mm^3) tumors,largely unaffected
same,gross appearance of tumors,"[3]; starting within 30 minutes, progressively more marked up to 24 hours","blackened, bruised appearance"
same,thrombosis of tumor vessels,"[4]; large tumors (>1000 mm^3), 24 hours after injection, FIG. 10",virtually all vessels were thrombosed
same,effect on tumor vessels,[4]; small (<500 mm^3) tumors,largely unaffected
same,"tumor vessels thrombosed, on average",[5],62%
same,tumor size relative to controls receiving diluent alone,"[6]; fourteen days after the first injection, small (300 mm^3) tumors, treatment repeated 6 days later, FIG. 18",75%
same,tumor response,"[6]; large (0.8 to 1.0 cm diameter) tumors, two intravenous injections 6 days apart, FIG. 12A",grew significantly more slowly
same,tumor size relative to tumors in mice receiving diluent alone,"[6]; one week after the second treatment, small (300 mm^3) tumors at start",60%
same,effect of the first treatment on tumor growth,"[6]; small (300 mm^3) tumors, 16-20 μg intravenously, FIG. 12B",slight inhibitory effect on tumor growth
same,effect of the second treatment on tumor growth,"[6]; treatment repeated one week later, FIG. 12B","substantially greater, statistically significant (P<0.01), effect on tumor growth"
same,tumor volume to which tumors regressed before regrowing,[7]; second treatment given when tumors were 900 mm^3,550 mm^3
same,effect of the first treatment,[7]; tumors small (250 mm^3),little effect on growth rate
same,time for which tumors discontinued growth after treatment,[8],about 7 days
same,"necrosis in tumor sections, in words",[9],some necrosis
same,"thrombi or abnormalities in paraffin sections of liver, kidney, lung, intestine, heart, brain, adrenals, pancreas, spleen",[10],"neither thrombi, nor histological or morphological abnormalities were visible"
same,times less factor X-activating activity relative to native transmembrane TF,[11],approximately 10^5 times
